Tested on: p53/DNA complex (p21 dsDNA)
Assay: Electrophoretic mobility shift assay
Assay type: binding
Details: phosphorylated p53 8 µM, p21 DNA 4 µM, 14-3-3γ 0–20 µM; 0.8% agarose gel

B1: 14-3-3: recombinant 14-3-3 protein (γ isoform in EMSA, Figure 5A) (protein)
chain: MDDREDLVYQAKLAEQAERYDEMVESMKKVAGMDVELTVEERNLLSVAYKNVIGARRASWRIISSIEQKEENKGGEDKLKMIREYRQMVETELKLICCDILDVLDKHLIPAANTGESKVFYYKMKGDYHRYLAEFATGNDRKEAAENSLVAYKAASDIAMTELPPTHPIRLGLALNFSVFYYEILNSPDRACRLAKAAFDDAIAELDTLSEESYKDSTLIMQLLRDNLTLWTSDMQGDGEEQNKEALQDVEDENQ
In the case of B1, the p53/DNA complex formation is reported as “enhanced the p53/DNA complex formation”.
